For assay [1], the target named is T1, human LILRB4 (human, UniProt Q8NHJ6 22-259, limits assumed).
T1 construct: also called leukocyte immunoglobulin-like receptor subfamily B member 4
The assay is described as follows: ELISA; lower end of the range, tied to #214 by Table 1.

Assay [2] addresses T1, human LILRB4. The assay is described as follows: ELISA. A general note: In an ELISA, binding on a coated surface is turned into a signal by an enzyme label.
Assay [3] addresses T1, human LILRB4. The assay is described as follows: ELISA; upper end of the range, tied to #216-1 by Table 1.

The source of these data is patent publication US20180086829A1 (published 2018).

The EC50 is the concentration giving half of the maximal effect. Read a low EC50 as higher potency in that assay.

B1: anti-LILRB4 rabbit monoclonal antibody #214 (antibody, V domains shown)
VH: QSVKESGGRLVTPGTPLTLTCTVSGFSLSSYWMHWVRQAPGKGLEWVGVVSVSGNFYYATWAKGRFTISKTSTTVDLKITSPTIEDTAFYFCTMSFALWGQGTLVTISS
VL: ELVMTQTASPVSAAVGGTVTINCQSSQSVYSNNNLGWLKQKPGQPPKELIYYASTLASGVPSRFKGSGSGTQFTLTISDLECDDAATYYCVGGYGCSSADCSVFGGGTEVEIK
notes: Rabbit monoclonal antibody
Molecule B1 returned an EC50 in assay [1] of 0.05 nM. This counts as picomolar.

B2: anti-LILRB4 rabbit monoclonal antibody #78 (antibody, V domains shown)
VH: QSLQESGGRLVTPGTPLTLTCTVSGIDLSVYLMSWVRQSPGKGLEYIGFINSAGITAYATWAKGRFIISKTSTTVDLKVTSPTTEDTATYFCARNWIRLDLWGQGTLVTISS
VL: ELVLTQTPASVSAAVGGTVTISCQSSESIYKNYLSWFQQKPGQPPKLLIYETSKLASGVPSRFSGSGSGTQFTLTISDVQCDDAATYYCLGGYTNGRDTIFGGGTELEIK
notes: Rabbit monoclonal antibody; also called mAb 78; bin 1
On to B2, for which, in assay [2], the concentration for a half-maximal effect (EC50) came out at 0.0808 nM.

B3: anti-LILRB4 rabbit monoclonal antibody #216-1 (antibody, V domains shown)
VH: EQSVEESGGGLVKPGASLTLTCIASGFSFSSSYVMCWVRQAPGKGLELIACIHAGGSGSTYYASWAKGRFTISKTSSTTVTLQMTSLTAADTATYFCARYNYHFYYIGDYSDLWGPGTLVTVSS
VL: ELVMTQTPSSVSAAVGGTVTIKCQASEDIDSYLAWYQQKPGQRPKVLIYRASTLASGVPSRFKGSGSGTEFTLTISGLECDDAATYYCQQGWSNDVGSNAFGGGTKVEIK
notes: Rabbit monoclonal antibody
As to B3, the EC50 in assay [3] worked out at 0.3 nM.
